Assay results published in article PMC5114784, “Identification and characterization of two new 5-keto-4-deoxy-D-Glucarate Dehydratases/Decarboxylases” (BMC Biotechnology, 2016).

Key:
[1] = substrate: O=C(O)C(=O)C[C@H](O)[C@@H](O)C(=O)O; test: purified protein; type: biochemical, Acinetobacter baylyi; conditions: 2.5 mM KPi pH 7.0, 2 mM MgCl2, 25 μg/ml BTB, 37 °C
[2] = substrate: O=C(O)C(=O)C[C@H](O)[C@@H](O)C(=O)O; test: purified protein; type: biochemical, Polaromonas naphthalenivorans; conditions: 2.5 mM KPi pH 7.0, 2 mM MgCl2, 25 μg/ml BTB, 37 °C

Row | Protein | Km [1] | Vmax [1] | kcat [1] | kcat/Km [1] | Km [2] | Vmax [2] | kcat [2] | kcat/Km [2]
1 | KdgDAb (Acinetobacter baylyi ADP1) (protein, full-length, N-terminal His-tag (NH), codon-optimized gene, E. coli BL21(DE3), IMAC purified) MDALELKNIVSDGLLSFPVTDFDQNGDFNAASYAKRLEWLAPYGASALFAAGGTGEFFSLTGDEYSDVIKTAVDACKGSVPIIAGAGGPTRQAILQAQEAERLGAHGILLMPHYLTEASQEGLVEHVKQVCNAVNFGVIFYNRSVSKLNVDSLQQLVESCPNLIGFKDSSGQIDMMTEVVQTLGDRLSYLGGLPTAEIFAAPYKALGSPVYSSAVFNFIPKTAMEFYNALRNDDFATTQRLIRDFFLPLIKIRNRKSGYAVSMVKAGAKIVGHDAGPVRPPLSDLTPQDYEDLAALIATLGPQ | 1000 ± 100 µM | 8 µmol/min/mg | 4.5 ± 0.02 s⁻¹ | 4500 M⁻¹ s⁻¹ |  |  |  | 
2 | KdgDPn (Polaromonas naphthalenivorans CJ2) (protein, full-length, C-terminal His-tag (CH), codon-optimized gene, E. coli ArcticExpress(DE3), IMAC purified) MNPQDLKTIVSSGLLSFPVTDFDEQGDFRPKTYIERLEWLAPYGATALFAAGGTGEFFSLTGDEYPLIIKTAVNTCAGKVPIIAGVGGPTRFAIACAQEAERLGAHGILLLPHYLMEAGQEGLIAHVEAVCKSVKFGVIVYNRNVCKLTPESLAILADRCPNLIGFKDGVGNIETMSSIFMKMGDRFSYLGGLPTAEVYAAAYKALGTPVYSSAVFNFIPKTAMDFYHAVASDDLATQHRLLRDFFMPYLALRNKNPGYAVSIVKAGATIVGHDAGPVRPPLTDLKPAEMEELAVLIKSLGPQ |  |  |  |  | 1100 ± 100 µM | 3 µmol/min/mg | 1.7 ± 0.01 s⁻¹ | 1500 M⁻¹ s⁻¹
